Data from PMC4043579 (Reproduction (Cambridge, England), 2014).

Biological target: T1, mouse gremlin-2 (GREM2; PRDC) (mouse, UniProt O88273 22-168)
T1 sequence (looked up): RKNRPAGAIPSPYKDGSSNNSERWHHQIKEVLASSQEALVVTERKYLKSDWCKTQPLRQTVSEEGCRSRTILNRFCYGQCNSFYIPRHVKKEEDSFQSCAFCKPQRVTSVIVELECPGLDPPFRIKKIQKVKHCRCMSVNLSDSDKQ
Experiment: co-IP

- binding result: binds
B1: human anti-Müllerian hormone (AMH) (ligand, UniProt P03971 452-560, looked up)
chain: SAGATAADGPCALRELSVDLRAERSVLIPETYQANNCQGVCGWPQSDRNPRYGNHVVLLLKMQVRGAALARPPCCVPTAYAGKLLISLSEERISAHHVPNMVATECGCR
